# Substitutions are numbered along the chain they refer to. In names and notes the source's numbering stands.
# B1: HA-tagged DLD-K430Q (enzyme, human, UniProt P09622 36-509, looked up)
# chain: ADQPIDADVTVIGSGPGGYVAAIKAAQLGFKTVCIEKNETLGGTCLNVGCIPSKALLNNSHYYHMAHGKDFASRGIEMSEVRLNLDKMMEQKSTAVKALTGGIAHLFKQNKVVHVNGYGKITGKNQVTATKADGGTQVIDTKNILIATGSEVTPFPGITIDEDTIVSSTGALSLKKVPEKMVVIGAGVIGVELGSVWQRLGADVTAVEFLGHVGGVGIDMEISKNFQRILQKQGFKFKLNTKVTGATKKSDGKIDVSIEAASGGKAEVITCDVLLVCIGRRPFTKNLGLEELGIELDPRGRIPVNTRFQTKIPNIYAIGDVVAGPMLAHKAEDEGIICVEGMAGGAVHIDYNCVPSVIYTHPEVAWVGKSEEQLKEEGIEYKVGKFPFAANSRAQTNADTDGMVKILGQKSTDRVLGAHILGPGAGEMVNEAALALEYGASCEDIARVCHAHPTLSEAFREANLAASFGKSINF
# B2: HA-tagged DLD-K430R (enzyme, human, UniProt P09622 36-509, looked up)
# chain: B1 chain with Q395R
# Legend:
# [1] = biological target: T1, dihydrolipoamide dehydrogenase (DLD) (Homo sapiens, UniProt P09622); assay: bio-layer interferometry and SPR; type: binding
# T1 sequence (P09622 36-509): B1 chain with Q395K
# [2] = biological target: the molecule itself; assay: cross-linking
molecule,measurement,setting,value
O=C(O)CCCCC(CCSCc1ccccc1)SCc1ccccc1 (stereo not drawn) [devimistat],Kd,[1],500 to 600 nM
B1,stoichiometry N,[2],2
B2,stoichiometry N,[2],2

# Source: article PMC12618484 (Nature Communications, 2025)
